Target: T1, cTnI质控品重组蛋白 (recombinant cardiac troponin I quality-control antigen, made in-house) (human, UniProt P19429 1-210, limits assumed)
T1 construct: The assay paragraph says only 'cTnI质控品重组蛋白(公司自产重组抗原)', so the limits of the construct are unknown; also called 心肌肌钙蛋白I; cTnI质控品重组抗原
Test: BLI, antibody held on AMC sensor, cTnI recombinant protein in solution in a dilution series

T1 sequence (P19429 whole entry): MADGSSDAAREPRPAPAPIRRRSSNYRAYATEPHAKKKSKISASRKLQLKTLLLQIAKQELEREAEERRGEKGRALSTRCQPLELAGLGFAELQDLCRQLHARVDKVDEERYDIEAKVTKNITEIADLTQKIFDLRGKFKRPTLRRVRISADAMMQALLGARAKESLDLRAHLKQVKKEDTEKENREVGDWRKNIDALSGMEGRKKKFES

B1: Anti-cTnI 2E7 recombinant antibody (sample 1 of Example 1) (antibody, V domains shown)
VH: QVQLQQPGAELVRPGASVKLSCKASDYTFSSYWMQWVKQRPGQGLEWIGMLDPSDSETHYNQLFKDKATLTVDKSSNTAYMQLSSLTSEDSAVYFCAFLTSLGDYWGQGTTLTVSS
VL: DVLMTQTPLSLPVSLGDQASISCRSSQSIIHSQGNSYLEWYLQKPGQSPKLLLYKVSQRLSGVPDRFSGSGSGTDFTLKISRVEAEDLGVYYCFNGSHLPITFGAGTKLELK
Kd: 64.8 nM | koff: 0.0027 s⁻¹ | kon: 41700 M⁻¹ s⁻¹

From CN111018979A (DONGGUAN PENGZHI BIOTECHNOLOGY CO LTD, dated 2020)
